For one experiment, the target named is T1, rat VEGF164 (rat, UniProt P16612).
T1 chain: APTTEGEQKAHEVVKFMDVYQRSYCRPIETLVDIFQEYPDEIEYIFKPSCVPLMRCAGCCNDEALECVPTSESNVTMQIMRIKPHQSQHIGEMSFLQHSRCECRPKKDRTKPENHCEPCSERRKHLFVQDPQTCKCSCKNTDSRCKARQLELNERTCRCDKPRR
Briefly: SPR, pH 5. Background: SPR reads the build-up and loss of mass on a sensor chip optically.

Another experiment has as its target T2, mouse VEGF164 (mouse, UniProt Q00731).
T2 chain: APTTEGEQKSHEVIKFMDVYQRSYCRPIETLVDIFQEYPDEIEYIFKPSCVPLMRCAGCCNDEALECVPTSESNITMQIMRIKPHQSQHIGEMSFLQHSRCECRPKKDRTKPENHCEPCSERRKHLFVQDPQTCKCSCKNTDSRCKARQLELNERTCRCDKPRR
Briefly: SPR, pH 5.

Experiment [1] deals with T3, human VEGF165 (human, UniProt P15692).
T3 chain: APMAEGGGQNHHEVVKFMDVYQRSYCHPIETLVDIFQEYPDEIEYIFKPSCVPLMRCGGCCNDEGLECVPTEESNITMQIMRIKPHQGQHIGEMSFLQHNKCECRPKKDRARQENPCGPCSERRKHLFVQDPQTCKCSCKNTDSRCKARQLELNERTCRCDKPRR
Description: SPR, pH 5.

The target in another experiment is T4, human VEGF110 (human, UniProt P15692).
T4 chain: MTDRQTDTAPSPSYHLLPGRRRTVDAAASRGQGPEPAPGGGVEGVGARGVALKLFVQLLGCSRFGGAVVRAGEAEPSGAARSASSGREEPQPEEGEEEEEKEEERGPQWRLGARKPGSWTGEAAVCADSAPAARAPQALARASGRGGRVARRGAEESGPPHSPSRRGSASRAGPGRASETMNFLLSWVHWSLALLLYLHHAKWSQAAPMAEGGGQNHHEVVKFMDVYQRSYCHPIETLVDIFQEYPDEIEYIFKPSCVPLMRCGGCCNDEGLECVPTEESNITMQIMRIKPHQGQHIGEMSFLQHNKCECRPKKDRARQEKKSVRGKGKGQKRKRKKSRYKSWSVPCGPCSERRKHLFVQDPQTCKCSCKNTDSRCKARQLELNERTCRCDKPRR
Description: SPR, pH 5.

For the next experiment, the target named is T5, human VEGF121 (human, UniProt P15692).
T5 chain: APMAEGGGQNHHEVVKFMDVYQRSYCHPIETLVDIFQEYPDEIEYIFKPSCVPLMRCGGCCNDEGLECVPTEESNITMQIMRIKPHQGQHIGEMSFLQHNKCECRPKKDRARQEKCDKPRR
Description: SPR, pH 5.

The target in the next experiment is T6, human PlGF (human, UniProt P49763).
T6 chain: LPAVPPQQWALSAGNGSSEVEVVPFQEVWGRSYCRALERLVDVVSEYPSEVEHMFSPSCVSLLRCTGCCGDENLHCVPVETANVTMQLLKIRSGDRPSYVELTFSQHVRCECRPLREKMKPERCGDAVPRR
Briefly: SPR, pH 5.

Experiment [2] has as its target T3, human VEGF165. Description: SPR, pH 7.4.

B1: 567-min (antibody, V domains shown)
VH: EVQLVESGGGLVQPGGSLRLSCAASGFSLSDYYMCWVRQAPGKGLEWVSCLDYFGSTDDASWAKGRFTISRDNSKNTLYLQMNSLRAEDTAVYYCAKTDDSRGWGLNIWGQGTLVTVSS
VL: EIVMTQSPSTLSASVGDRVIITCQADQSIYIWLSWYQQKPGKAPKLLIYKASTLESGVPSRFSGSGSGAEFTLTISSLQPDDFATYYCQNNAHYSTNGGTFGQGTKLTVLG
Regarding B1, the dissociation constant Kd (as a rule, the equilibrium constant for the complex coming apart) was found to be 0.279 nM in the experiment with rat VEGF164; 0.17 nM with mouse VEGF164; 0.23 nM with human VEGF165 [1]; 0.0251 nM with human VEGF110; 0.0241 nM in the experiment with human VEGF121; 0.631 nM with human VEGF165 [2]. Also, the binding result in the experiment with human PlGF is recorded as “no binding”.

B2: 509-maxII (antibody, V domains shown)
VH: EVQLVESGGGLVQPGGSLRLSCTASGFSLSSYYMSWVRQAPGKGLEWVGILDYVGDTDYASWAKGRFTISKDASKNTVYLQMNSLRAEDTAVYYCARTDDSRGWGLNIWGQGTLVTVSS
VL: EIVMTQSPSTLSASVGDRVIITCQASQNIRIWLSWYQQKPGKAPKLLIYKASTLESGVPSRFSGSGSGTEFTLTISSLQPDDFATYYCQNNAHYSTNGGTFGQGTKLTVLG
As to B2, the equilibrium dissociation constant (Kd) with rat VEGF164 was found to be 1.81 nM; with mouse VEGF164, 1.73 nM; with human VEGF165 [1], 3.37 nM; in the experiment with human VEGF110, 1.48 nM; with human VEGF121, 1.37 nM; with human VEGF165 [2], 2.61 nM. Also, the binding result with human PlGF was “no binding”.

B3: 578-min (antibody, V domains shown)
VH: EVQLVESGGGLVQPGGSLRLSCAASGFSLTDYYYMTWVRQAPGKGLEWVSFIDPDDDPYYATWAKGRFTISRDNSKNTLYLQMNSLRAEDTAVYYCAKGDHNSGWGLDIWGQGTLVTVSS
VL: EIVMTQSPSTLSASVGDRVIITCQASEIIHSWLAWYQQKPGKAPKLLIYLASTLASGVPSRFSGSGSGAEFTLTISSLQPDDFATYYCQNVYLASTNGANFGQGTKLTVLG
Turning to B3, the equilibrium dissociation constant (Kd) with rat VEGF164 worked out at 10.7 nM; with mouse VEGF164, 10.7 nM; with human VEGF165 [1] it was 9.01 nM; with human VEGF110, 11.4 nM; with human VEGF121 it was 9.16 nM; with human VEGF165 [2], 0.181 nM. Further, in the experiment with human PlGF, the binding result is on record as “no binding”.

B4: 578-max (antibody, V domains shown)
VH: EVQLVESGGGLVQPGGSLRLSCTASGFSLTDYYYMTWVRQAPGKGLEWVGFIDPDDDPYYATWAKGRFTISRDTSKNTVYLQMNSLRAEDTAVYYCAGGDHNSGWGLDIWGQGTLVTVSS
VL: EIVMTQSPSTLSASVGDRVIITCQASEIIHSWLAWYQQKPGKAPKLLIYLASTLASGVPSRFSGSGSGTQFTLTISSLQPDDFATYYCQNVYLASTNGANFGQGTKLTVLG
For B4, the equilibrium dissociation constant (Kd) with rat VEGF164 was 0.598 nM; in the experiment with mouse VEGF164, 0.429 nM; with human VEGF165 [1], 0.439 nM; with human VEGF110 it was 1.38 nM; with human VEGF121, 0.95 nM; with human VEGF165 [2] it was 0.0237 nM. Further, the binding result with human PlGF was “no binding”.

B5: 511-min (antibody, V domains shown)
VH: EVQLVESGGGLVQPGGSLRLSCAASGFSLNTYYMNWVRQAPGKGLEWVSIIAPDDTTYYASWAKSRFTISRDNSKNTLYLQMNSLRAEDTAVYYCAKSGDTTAWGADIWGQGTLVTVSS
VL: EIVMTQSPSTLSASVGDRVIITCQASQSINIWCSWYQQKPGKAPKLLIYRASTLASGVPSRFSGSGSGAEFTLTISSLQPDDFATYYCQANYAYSAGYGAAFGQGTKLTVLG
Consider B5, for which the Kd turned out to be 2.04 nM with rat VEGF164; 1.64 nM with mouse VEGF164; 2.53 nM in the experiment with human VEGF165 [1]; 1.45 nM in the experiment with human VEGF110; 1.24 nM with human VEGF121; 1.31 nM in the experiment with human VEGF165 [2]. The binding result with human PlGF is “no binding”.
